According to article PMC10871369 (bioRxiv, 2024):

Assays:
B55 [1] = assay: Binding of proteins to panel of purified B55 mutants; details: panel of B55 mutants covering patch 1-3 residues
B55 [2] = assay: MS of B55 WT, V228A, I284A, S287A and D340A immunopurifications; assay type: binding; details: B55 S287A vs WT immunopurifications

requirement of B55 S287 (patch 2) for binding (B55 [2])	Molecule	B55 patch requirement for binding (B55 [1])
	CDCA4: helix-loop-helix B55 binder (SERTA domain) (protein, UniProt Q9BXL8 1-241, looked up) Cell division …: MFARGLKRKCVGHEEDVEGALAGLKTVSSYSLQRQSLLDMSLVKLQLCHMLVEPNLCRSVLIANTVRQIQEEMTQDGTWRTVAPQAAERAPLDRLVSTEILCRAAWGQEGAHPAPGLGDGHTQGPVSDLCPVTSAQAPRHLQSSAWEMDGPRENRGSFHKSLDQIFETLETKNPSCMEELFSDVDSPYYDLDTVLTGMMGGARPGPCEGLEGLAPATPGPSSSCKSDLGELDHVVEILVET	requirements from residues in patch 1 and 3
does not	IER2: helix-loop-helix B55 binder (protein, UniProt Q9BTL4 1-223, looked up) Immediate early response gene …: MEVQKEAQRIMTLSVWKMYHSRMQRGGLRLHRSLQLSLVMRSARELYLSAKVEALEPEVSLPAALPSDPRLHPPREAESTAETATPDGEHPFPEPMDTQEAPTAEETSACCAPRPAKVSRKRRSSSLSDGGDAGLVPSKKARLEEKEEEEGASSEVADRLQPPPAQAEGAFPNLARVLQRRFSGLLNCSPAAPPTAPPACEAKPACRPADSMLNVLVRAVVAF	requirements from residues in patch 1 and 3
